The source of these data is a protein production outcome set (Wang et al. 2014).

A short description of this data set: label from the status in PepcDB records.

As for “MAERINPVVKAVLEWGPIAAFFLGYVKLKDETFTVAGTDYQGFIIVTAAFIPLMVICTGLLWWLSGKLSKMQVATVVLVVVFGGLSVWLNDDRFFKMKPTMIYLLFGVLLGIGLLRGQSWLRLVLEEAIPLQDEGWMILTRRVMAFFFALAIANEAVWRLMSTDAWVNFKTFGLPLAIFVFFMTQSGLFKRYNPERKDEA”, the protein production result is listed as “not failed”.

In the case of “MAERLGILVGGGPAPGINSVISSVTIEAINNGLEVIGIYDGFKHLVEGKTNMVKKLSIEDVSRIHIEGGSILRTSRVNPAKSEETLEKTVQTLKKLGIKYLVTIGGDDTAFSASKVCERSKGEIKVVHVPKTIDNDLPLPENMPTFGFETARHVATELVYNLMQDSRTTNRWYFVAMMGREAGHLALGVGKAASATITIIPEEFKEGVTLEEVCDVLDGAILKRKLMGRDDGVAVIGEGIAEKMDPEELANIPGVIVEKDPHGHLRLAEIPLATILKRAIERRYAERGERIHIVDVTIGYELRSARPIPFDIVYTRTLGYGAVRFLLGDYSDLPGGMVCVVGGRIKILPFDAFMDPKTGRTKVRVVDVRSEDYRVARKYMIRLEKKDLEDPETLEKLAKLAKMEPEEFKKKYWHTTELP”, the protein production entry was “failed”.

As for “MAETAETINTTISSPPPESESSTTISAMTDPTSQEAASKDTDLTKEAESEKKPGGISLRIWPPTQKTRDAVLNRLIETLSTESILSKRYGTLKSDDATTVAKLIEEEAYGVASNAVSSDDDGIKILELYSKEISKRMLESVKARSNASVGNGSVEDANTDASEVSKDDAGPASEEEKSEA”, the protein production result is reported as “failed”.

For the sequence “MAEYEDRYWTSSDGLRLHFRAYEGDISRPPVLCLPGLTRNARDFEDLATRLAGDWRVLCPEMRGRGDSDYAKDPMTYQPMQYLQDLEALLAQEGIERFVAIGTSLGGLLTMLLAAANPARIAAAVLNDVGPEVSPEGLERIRGYVGQGRNFETWMHAARALQESSGDVYPDWDITQWLRYAKRIMVLGSSGRIAFDYDMKIAEPFEAPVGATPQVDMWPLFDALATRPLLVLRGETSDILSAQTAAKMASRPGVELVTLPRIGHAPTLDEPESIAAIGRLLERV”, the protein production entry is on record as “not failed”.

Turning to “MAFCSLEKRHAILDWPQLQLTNGSGRCSGRVEVYYHGQWGRVCDDQWDLREADVVCRQLNCGDALEAPVQARFGDGPGEFLLDEMDCTGTESFLGQCPHAGWHLHNCGSGEDASVICEGNGEELVARPQVLPVADPVPGSRRAHVPRLSLNGADMSPDPTPVIDPDPESSKPSGDWAPVRLSGNHGSCAGRVELFYQGVWGTVCDDLWDLTEANIICRQLGCGRAVSALSEAYFGQGSGKILLDNVHCKGHEEHLEECSHLGWFSHNCDHSEDASVICSDAEYGMATLSDHPLAVMEGAMNPEKSRCGGVITKAPGKIKNPPMNEMHDNITCVWEIRANTSDRIRLAFPSLDLDCTNEYFEILDGPPSSVKSLGKPCRGLHVTFASHSNSMTLVYFRGENNIGKNFMAYYYFEAKEVTTKTPYLITIPTATSKMVTERPQFSKPAQPTHTPSGNVSPLPVPDSGDWPELRLVGGSNRCSGRVEILYQGVWGTVCDDLWDLNEAEVVCRQLECGQAVSSLGEAYFGPGSGDIFLDNLQCSGLEHYLSQCPHSGWSEHNCGHHEDAGVICSDSGAPPPPMPPGPPPTSQDPLTGGSNSCGGVISSLSGSFTSPQYPENYPTDIQCVWEIHVEKNFRIELMIPNLNLEDILGCPYDSVEIFDGPRIPSLSMGKFCAPSAVVFFSSSDILTVVFRSDYMTTNTGFYAFFNAIPQDGKESEERPVLRLAGSSGQCSGRVEILHQGAWGTVCDDLWDLNEAEVVCRQLGCGHAIAAPGSAYFGPGSGNILLDNIQCSGKENHFGQCSSSAWLDHNCGHHEDAGVICSDAEVTPSPTEGSQSCGGVISSLSGSFSSPWYPTNYPTDTECIWEIHVAEKFNIELTIPSLK”, the protein production entry was “failed”.

Turning to “MAFDGCCPDCKLPGDDCPLIWGACNHAFHLHCILKWVNSQTSQAHCPMCRREWQFKE”, the protein production entry is recorded as “failed”.

Consider “MAFGSFARSGGSSRFLFTAGRMAQQLTVSIGQASSPGRKPVNQDFYGALIPAEPLLITKGIALALADGISSSDISQVASESAVKSFLTDYYCTSEAWSVKSSAQRVIAATNSWLHAETRRSDYRYDRDKGYVCTLSALVIKGAAAHLFHIGDSRIYRLAGASLEQLTEDHRVRLSAEQSYLGRALGVNPQVEIDYLSVPIGSGDLFVLATDGVYEHVAHRFVVQTLRDHGDDLDAAARAIVGEAFNNGSDDNLTVQVVRIESVPGADSIDLFERVAELPLPPLLEPRAEFDGYRIIRELHGSSRSHIYLASDLATGELVVLKIPSADLRDDPEYRKRFMLEEWAARRIDSPHVLKPCVVQRPRSYLYVTFEYIEGQTLAQWMIDHPRAELETVRGLIEQIAKGLYAFHRKEMVHQDLRPANVLIDRSGTVKIIDFGSVRVAGVAELGPAGGDELLGTVQYMAPEYFAGQGGSALSDQFSLGVIAYQMLTGRLPYGAELARANQALKSRKLRYSAAADHNAKVPVWVDRALQRAVSLDPAKRYPALSEFVHDLRHPRADYLDARPQPLAARNPLLFLQLLSALLALIVVGLLARLHGSI”, for which the protein production entry is “failed”.

For the sequence “MAFTKIIFKNPNTGAIKEAPVGFSWTVFFFGFIPALFRADWKWAAIMFLLAMFTFGLSNLVFMFIYNKLYVRDLIGAGFKAQSIASGDLNFASSRIGMEIPRLEAA”, the protein production result is listed as “failed”.

On to “MAGAAHRLMEARMRRYDNKFARISDIDINQPESWRGRIFLTFDIDWAADFVLQDTIDLIEGAGVCATWFATHSTPLLENIRRNPLFELGVHPNFNPLLAGAHAEGVQEILDRTLELAPGCVSVRSHSLVQATSILNMFGERRLRYDCNILVPWDAGIVLQPWRHWTGDMVRVPYLWEDDVACLYDWEFDSTFDYWYQPDGINVLDFHPIHVYMNTESLRRYEDSREVHRNPVDLIRWRNTSAGSRTFLQSLLARNI”, for which the protein production result was “not failed”.

Consider “MAGAPGPLRLALLLLGMVGRAGPRPQGATVSLWETVQKWREYRRQCQRSLTEDPPPATDLFCNRTFDEYACWPDGEPGSFVNVSCPWYLPWASSVPQGHVYRFCTAEGLWLQKDNSSLPWRDLSECEESKRGERSSPEEQLLFLYIIYTVGYALSFSALVIASAILLGFRHLHCTRNYIHLNLFASFILRALSVFIKDAALKWMYSTAAQQHQWDGLLSYQDSLSCRLVFLLMQYCVAANYYWLLVEGVYLYTLLAFSVLSEQWIFRLYVSIGWGVPLLFVVPWGIVKYLYEDEGCWTRNSNMNYWLIIRLPILFAIGVNFLIFVRVICIVVSKLKANLMCKTDIKCRLAKSTLTLIPLLGTHEVIFAFVMDEHARGTLRFIKLFTELSFTSFQGLMVAILYCFVNNEVQLEFRKSWERWRLEHLHIQRDSSMKPLKCPTSSLSSGATAGSSMYTATCQASCS”, for which the protein production entry is given as “failed”.

For “MAGAQPGVHALQLEPPTVVETLRRGSKFIKWDEETSSRNLVTLRVDPNGFFLYWTGPNMEVDTLDISSIRDTRTGRYARLPKDPKIREVLGFGGPDARLEEKLMTVVSGPDPVNTVFLNFMAVQDDTAKVWSEELFKLAMNILAQNASRNTFLRKAYTKLKLQVNQDGRIPVKNILKMFSADKKRVETALESCGLKFNRSESIRPDEFSLEIFERFLNKLCLRPDIDKILLEIGAKGKPYLTLEQLMDFINQKQRDPRLNEVLYPPLRPSQARLLIEKYEPNQQFLERDQMSMEGFSRYLGGEENGILPLEALDLSTDMTQPLSAYFINSSHNTYLTAGQLAGTSSVEMYRQALLWGCRCVELDVWKGRPPEEEPFITHGFTMTTEVPLRDVLEAIAETAFKTSPYPVILSFENHVDSAKQQAKMAEYCRSIFGDALLIEPLDKYPLAPGVPLPSPQDLMGRILVKNKKRHRPSAGGPDSAGRKRPL”, the protein production result is on record as “failed”.

In the case of “MAGASLFTLLDDIATLLDDVSILTKVAAKKTAGVLGDDLALNAQQVTGVTADRELPVVWAVAKGSLVNKVILVPAALAISALEAWLRGRGYNVPLVMPLMMIGGAYLCFEGVEKLAHKFLHSEEEDAQRHAERTRVLADEAVDVVALEKDKVKGAIRTDFILSAEIIVLSLGVVAGVSFGQQVAVLVAIALAMTIGVYGLVAGIVKLDDLGLYLSKKGAALAALGRGILVAAPWLMKFLSVAGTLAMFLVGGGILVHNIPTLHHLVVDLAKASGSLGWLVEALGNMLVGVVAGAVVLAAVTGFQKLRGNRPRTDSVQSLRRQAKSRTG”, the protein production entry was “failed”.

Take “MAGAYLHIPFCEHICYYCDFNKVFIEGQPVDDYVAMLLKEMRMVMAEHPEEKIQTVYVGGGTPSTLTPTQLATLCQGIHDILHFDQGEFTFEANPNDLLTTEKLQVLHDYGVNRLSIGVQSFNDDVLRRIGRIHRAKDVYTAIANARQVGFDNISIDLIFRLPDQSRDDFLTSLQKALALDLPHYSTYSLILERKTIFYNLMRQGKLRLPTQDVEADMYQDAIDLMEAHGRHQYEISNFAKDGYQCEHNLLYWRNDKYFGFGAGAFGYLGRDRYHNYGPIKQYLTPLHADHLPVLEHHLVPQSEQIEEEMFLGLRTMQGVSEARFYDRYHMTVDAIYGETVPELVSQGLVVRQDGYIRLTNKGKFLGNEVFQRFLIDEPLVLEHHHHHH”: the protein production entry is “not failed”.

Regarding “MAGCRTNAKGNAMPISIRIGNQDLTVDVSSLGAEMQALTSGDGRSWLWTGDAAFWTGRSPILFPIVGKAPDDKIAIDGTVYPMAQHGFARRSEFALAASTETMCRFELAASEATRAVYPFDFQLAVVHAVEGRALTVTAEVTNRDPKPMPFGLGFHSAFAWPLPGASGRDHIVTLDNKGEPALVRLEGGLINPAPLPSPFNAGRLVLDHSMFEQDAMIFPDGAGEGLAYGSEGGPAMRFHFKNLPNLALWTKPGAPFLCIEPWHGTAAEAGASSELSKRPSTTILAPGAVASFAFTVEIPQ”, the protein production result is listed as “failed”.

Regarding “MAGKRKSRRGFGRVRKLPSGRFQARYPGPDGVLRPADRTFATTTDADRWLMRKRIEIEEGCWLDPAEGQTTVRDWAARWLAAVSPQLKHKTQASYRSLINSLINPVLGDRELSSLRPITVTEWVGAMRTKGLSASRIRQAYRVLSQIMRSAVDNDMIPQTPCRGVRLPRMPQTEPHILTPLEASRIVKGATKPHDLLIALLAYAGLRVGEAFALRRVDVDVSGGFVLVDENLAEANGVLVFDTPKSHQKRLLRVGPSLAKRLGRHLETLPGGDDALLFTTPGGKPLRYNQWRKAYFDPAVSAAGLTDVTPHDLRASHGTWVADRYGVMTAAHRLGHSNASVTTRHYARPVAGRDDQVAEAADSWLSGSEDNDDGSAAVPA”, the protein production entry was “failed”.

Turning to “MAGLSTAELVDIALEMAEMRTLPADSAVYVESTDLKRVMMGIDIGPAELLLARQLGCDGVIAHHPAGGSATLNFPEVLTRHVELMVEHGVPATAARDAIQGLLTRSLLRAQSANHDHTPSVARLLEMPFLNIHLPLDEVGRRIMVKTIQEAVEPLGDEARVQDAIDALMTLPEFAGAATRIMVPVGAVDQPLGKIAVVHGAGTNGGYAVARAYFDHGVRTVLYIHIAPEEAERLRREGGGNLIVTGHIASDLVGINRYVQALEERGVEVVRMSGL”, the protein production result is on record as “not failed”.

As for “MAGNAPLQQVQKKWAECQYSTPDGDEKEQCFHRAIAKTSIYLDREPGNPELTVWLAINKASLAGAQGGFGALSLAKEAKSLLEGVIATSPQTLDGSAYTSLGSLYYKVPGWPIGFGDDDKAEEMLKKALEINPKGIDPNYFYGDFLAEEGRDKEAKVYLTRAMQASPRPDRPLADKGRKLEIEATLGRLKLEHHHHHH”, the protein production result was “not failed”.

With “MAGRRLIIGDVHGHYRSLYRLLELADPDTDDQVYCLGDLIDRGPDSAKVVALVRSQGYTSLMGNHEHLLSQVLAFPDLSELRLHWFQAGGQATLASFGSWEALEELRPWLQQLPLYLDLGEIWLVHAGVDPDLPLSRQDANEFCWIRDQFLARSQPFFANKTILVGHTITCTMAGIQPGYVAAGAGWLGLDTGVYHPRSGWLTALDWDNQRVFQVQAQSNETRVCDLAERLQTVLSNPAKGRRSLLRYPRDQVSPS”, the protein production entry is listed as “failed”.
